Results taken from publication PMC12098869, “An mRNA-display derived cyclic peptide scaffold reveals the substrate binding interactions of an N-terminal cysteine oxidase” (Nature Communications, 2025).
Where “and” joins values, the source holds several entries; their conditions need not be identical. Equal values may be shown once. Bridges are numbered along the chain shown (N, C = ends). Where no end group is shown, it is not given here.

How the values were obtained:
[1] = biological target: 2-aminoethanethiol dioxygenase (ADO), wild type, biotinylated (pQE80L-Navi-ADO) (human)
[2] = biological target: 2-aminoethanethiol dioxygenase (ADO), full-length human, N-terminally His-tagged and biotinylated (pQE80L-Navi-ADO) (human) (UniProt Q96SZ5)
[3] = biological target: 2-aminoethanethiol dioxygenase (ADO), wild type, biotinylated (pQE80L-Navi-ADO) (human); experiment: SPR; single-cycle kinetics (SCK), 1:1 binding model; biotinylated ADO or variant immobilised on a Biotin CAP chip, peptide injected at 25.6, 64, 160, 400, 1000 nM; 4 °C; 20 mM HEPES pH 7.5, 500 mM NaCl, 10 mM DTT, 0.1% (v/v) tween-20; 50 μL/minute
[4] = biological target: T1, 2-aminoethanethiol dioxygenase (ADO), full-length human, N-terminally His-tagged and biotinylated … (human, UniProt Q96SZ5 1-270, biotin (biotinylated during expression, 0.2 mM biotin added)); experiment: SPR; single-cycle kinetics (1:1 binding model); biotinylated ADO immobilised on a Biotin CAP chip (~2500-3000 RU), cyclic peptide injected; Biacore T200, 4 °C; 20 mM HEPES pH 7.5, 500 mM NaCl, 10 mM DTT, 0.1% tween-20; 50 µL/minute; each cell is one of three independent measurements; conditions: both partners purified
T1 construct: 2-aminoethanethiol dioxygenase (ADO), human, UniProt Q96SZ5, full length; Immobilised through its biotin on a Biotin CAP chip for SPR; also called wild type ADO; Biotinylated-ADO; source: E. coli Rosetta2(DE3), purified (Ni-NTA, SEC); not shown: biotinylation tag (from the vector pQE80L-Navi), N-terminal, kept
T1 sequence (looked up): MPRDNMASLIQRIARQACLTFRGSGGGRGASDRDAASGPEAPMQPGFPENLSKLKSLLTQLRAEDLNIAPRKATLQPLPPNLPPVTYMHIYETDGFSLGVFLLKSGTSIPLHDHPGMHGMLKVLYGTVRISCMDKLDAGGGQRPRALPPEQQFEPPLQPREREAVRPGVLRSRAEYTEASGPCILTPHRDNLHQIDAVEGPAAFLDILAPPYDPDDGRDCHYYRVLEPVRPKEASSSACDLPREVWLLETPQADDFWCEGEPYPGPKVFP

[5] = biological target: T2, 2-aminoethanethiol dioxygenase (ADO), full-length human, N-terminally His-tagged and biotinylated … (human, UniProt Q96SZ5 1-270, biotin (biotinylated during expression, 0.2 mM biotin added)); experiment: cell-based or functional assay
T2 sequence (looked up): T1 sequence (looked up)

[6] = biological target: T3, 2-aminoethanethiol dioxygenase (ADO), wild type, biotinylated (pQE80L-Navi-ADO) (human, biotin on the Avi tag); experiment: SPR; single-cycle kinetics (SCK), 1:1 binding model; biotinylated ADO or variant immobilised on a Biotin CAP chip, peptide injected at 25.6, 64, 160, 400, 1000 nM; 4 °C; 20 mM HEPES pH 7.5, 500 mM NaCl, 10 mM DTT, 0.1% (v/v) tween-20; 50 μL/minute; conditions: both partners purified
T3 construct: 2-aminoethanethiol dioxygenase (ADO), human, full length; also called Biotinylated-ADO; source: E. coli Rosetta2(DE3), purified (Ni-NTA, SEC); not shown: Avi tag, N-terminal, kept; His6, N-terminal, kept
T3 chain: T1 sequence (looked up)

B1: CP6-F6S (peptide)
peptide: {CH2CO}-YIVKTSWLGSHRQC
modifications: thioether N-14
notes: the substitution F6S is to be applied to them; Single amino acid substituent of CP6; source: synthetic peptide
[1]
  IC50 of inhibition of ADO activity (oxidation of RGS5 (2-15) followed by LCMS; enzyme from the pET28a-ADO construct); blocks ADO with RGS5 (2-15): 0.19 µM
[2]
  IC50 of inhibition of ADO activity: 200 nM
[3]
  Kd: 5.8 nM
[4]
  Kd: 5.8 nM and 5.64 nM and 5.96 nM

## {CH2CO}-YIVATFWLGSHRQC (thioether N-14) [CP6-K4A]
[5]
  IC50 of inhibition of ADO activity: 21000 nM

B2: cyclic peptide CP6 (peptide)
peptide: {CH2CO}-YIVKTFWLGSHRQC-NH2
modifications: thioether N-14
SMILES: CC[C@H](C)[C@@H]1NC(=O)[C@H](Cc2ccc(O)cc2)NC(=O)CSC[C@@H](C(N)=O)NC(=O)[C@H](CCC(N)=O)NC(=O)[C@H](CCCNC(=N)N)NC(=O)[C@H](Cc2c[nH]cn2)NC(=O)[C@H](CO)NC(=O)CNC(=O)[C@H](CC(C)C)NC(=O)[C@H](Cc2c[nH]c3ccccc23)NC(=O)[C@H](Cc2ccccc2)NC(=O)[C@H]([C@@H](C)O)NC(=O)[C@H](CCCCN)NC(=O)[C@H](C(C)C)NC1=O
notes: selected by RaPID mRNA display against ADO; also called ADO-L-06; source: synthetic peptide (Fmoc-SPPS)
[6]
  Kd: 30 nM
